# Measured values from PMC12355267, “Human Helicase DDX5 is Hijacked by SARS-CoV‑2 Nsp13 Helicase to Enhance RNA Unwinding” (ACS Omega, 2025).
# B1: full-length DDX5 (flDDX5) (enzyme, human, UniProt P17844 1-614, looked up)
# chain: MSGYSSDRDRGRDRGFGAPRFGGSRAGPLSGKKFGNPGEKLVKKKWNLDELPKFEKNFYQEHPDLARRTAQEVETYRRSKEITVRGHNCPKPVLNFYEANFPANVMDVIARQNFTEPTAIQAQGWPVALSGLDMVGVAQTGSGKTLSYLLPAIVHINHQPFLERGDGPICLVLAPTRELAQQVQQVAAEYCRACRLKSTCIYGGAPKGPQIRDLERGVEICIATPGRLIDFLECGKTNLRRTTYLVLDEADRMLDMGFEPQIRKIVDQIRPDRQTLMWSATWPKEVRQLAEDFLKDYIHINIGALELSANHNILQIVDVCHDVEKDEKLIRLMEEIMSEKENKTIVFVETKRRCDELTRKMRRDGWPAMGIHGDKSQQERDWVLNEFKHGKAPILIATDVASRGLDVEDVKFVINYDYPNSSEDYIHRIGRTARSTKTGTAYTFFTPNNIKQVSDLISVLREANQAINPKLLQLVEDRGSGRSRGRGGMKDDRRDRYSAGKRGGFNTFRDRENYDRGYSSLLKRDFGAKTQNGVYSAANYTNGSFGSNFVSAGIQTSFRTGNPTGTYQNGYDSTQQYGSNVPNMHNGMNQQAYAYPATAAAPMIGYPMPTGYSQ
# notes: human DEAD-box helicase DDX5, native full-length gene in pET30a, 614 residues (1-614); also called full-length DDX5 (1–614); unlabeled flDDX5
# B2: RecA1 domain of DDX5 (1–303) (domain or fragment, human, UniProt P17844 1-303, looked up)
# chain: MSGYSSDRDRGRDRGFGAPRFGGSRAGPLSGKKFGNPGEKLVKKKWNLDELPKFEKNFYQEHPDLARRTAQEVETYRRSKEITVRGHNCPKPVLNFYEANFPANVMDVIARQNFTEPTAIQAQGWPVALSGLDMVGVAQTGSGKTLSYLLPAIVHINHQPFLERGDGPICLVLAPTRELAQQVQQVAAEYCRACRLKSTCIYGGAPKGPQIRDLERGVEICIATPGRLIDFLECGKTNLRRTTYLVLDEADRMLDMGFEPQIRKIVDQIRPDRQTLMWSATWPKEVRQLAEDFLKDYIHINIG
# notes: human DDX5, RecA1 domain with the N-terminal region, residues 1-303; probably as DDX5ΔC (pETM-13, His-tag), surmised; source: E. coli (cloned from the gene optimized for E. coli expression), purified
# B3: labeled RecA1 domain of DDX5 (domain or fragment, human, UniProt P17844 1-303, looked up)
# chain: B2 chain
# modifications: fluorescent label (dye and site not stated)
# notes: human DDX5, RecA1 domain with the N-terminal region, residues 1-303; also called fluorescent RecA1; source: E. coli (cloned from the gene optimized for E. coli expression), purified, then labeled
# Experiments:
# [1] = biological target: T1, SARS-CoV-2 Nsp13 helicase (SARS-CoV-2, UniProt P0DTD1 5325-5925); test: MST; conditions: both partners purified
# T1 construct: also called Nsp13 helicase of SARS-CoV-2
# [2] = biological target: T1, SARS-CoV-2 Nsp13 helicase; conditions: both partners purified
binder,measurement,setting,value
B1,IC50,[1],0.325 µM
B2,IC50,[1],16.2 µM
B3,Kd,[2],9.1 ± 1.3 µM
